Measured values as given in PMC6733935, “A convenient and efficient total solid-phase synthesis of DOTA-functionalized tumor-targeting peptides for PET imaging of cancer” (EJNMMI Research, 2019).
Values belong to the compound of their own block, whether it stands above or below them. Square brackets hold non-standard residues; d marks the D form. Peptide text beside a SMILES is read from it. * marks the point of attachment. DOTA = O=C(O)CN1CCN(CC(=O)O)CCN(CC(=O)*)CCN(CC(=O)O)CC1; Cha = N[C@@H](CC1CCCCC1)C(=O)O; 4Abz = Nc1ccc(C(=O)O)cc1; Nle = CCCC[C@H](N)C(=O)O; Ahx = NCCCCCC(=O)O

Assays:
[1] = assay type: physicochemical
Procedure: For lipophilicity determination, each HPLC-purified radiopeptide (~ 20 μL, ∼ 25 μCi) was added into a glass tube containing an equal volume mixture of n-octanol and water (1 mL each). The samples were vigorously vortexed for 5 min and subsequently centrifuged (5000 rpm, 5 min) to yield two immiscible layers. Duplicate samples (100 μL) from each layer were carefully taken (to avoid cross-contamination between the layers) for radioactivity measurement using a γ-counter. Partition coefficient was determined by the function: partition coefficient = Log10 (radioactivity in octanol layer/radioactivity in aqueous layer).

[2] = target: T1, BN/GRP receptor-positive MDA-MB-231 human breast cancer cells (Homo sapiens, UniProt P30550); test: Saturation binding assay on MDA-MB-231 cells; details: n = 3-5 experiments; for Bmax (apparent number of binding sites per cell): SD < 15%
T1 construct: BN/GRP receptor-positive MDA-MB-231, MCF7, T47D human breast cancer, and PC3 human prostate cancer lines; host or cells: MDA-MB-231, MCF7, T47D (human breast cancer), PC3 (human prostate cancer); intact cells
Procedure: (§1) The cell binding of ^68Ga-radiolabeled peptides into BN/GRP receptor-positive MDA-MB-231, MCF7, T47D human breast cancer, and PC3 human prostate cancer lines (American Type Culture Collection, Rockville, MD, USA) was performed according to the method described previously. In brief, ∼ 300,000 cells (in 300 μL in low-serum media) were incubated with various amounts of radiopeptides, ranging between 0.1 and 25 nM of peptide (prepared from the serial dilutions of HPLC-purified radiopeptides), in duplicate for 60 min at room temperature. The initial concentrations of ^68Ga-labeled peptides were determined according to a well-established HPLC technique with simultaneous detection by UV absorbance. As the amount of BN peptide in the reaction mixture was too small to be detected by UV absorption at 220 nm, the radioactive peptide chromatograms from the HPLC analysis were compared (with UV chromatograms) with those of known concentrations of the corresponding nonradioactive peptides for the mass determination. Incubation was terminated by dilution with cold saline (300 μL) and the cells were pelleted by centrifugation. The cell pellets was then rapidly washed with cold saline to remove any unbound peptide and centrifuged to collect supernatants. Radioactivity in the cell pellet and the washings was measured in a γ-counter. Non-specific binding was determined in the presence of ~ 200-fold molar excess of unlabeled BN peptide. Specific binding is calculated by subtracting the non-specifically bound radioactivity from that of the total binding. The dissociation constant (Kd) was calculated using a plot of cell bound activity versus the concentration of the radioligand using GraphPad Prism software (GraphPad Software Inc., San Diego, CA, USA).

[3] = target: T2, BN/GRP receptor-positive MCF7 human breast cancer cells (Homo sapiens, UniProt P30550); test: Saturation binding assay on MCF7 cells; details: n = 3-5 experiments; for Bmax (apparent number of binding sites per cell): SD < 15%
T2 construct: BN/GRP receptor-positive MDA-MB-231, MCF7, T47D human breast cancer, and PC3 human prostate cancer lines; host or cells: MDA-MB-231, MCF7, T47D (human breast cancer), PC3 (human prostate cancer); intact cells
Procedure: as §1

MDA-MB-231 tumors = test: in vivo; assay type: in vivo, nude mice; details: for Radioactivity in Urine + bladder / Uptake in Blood / Uptake in Intestines (measured without their contents) / Uptake in Kidneys / Uptake in Liver / Uptake in Lungs / Uptake in Muscle / Uptake in Pancreas / Uptake in Spleen / Uptake in Stomach: female, nude, mouse, in vivo; for Uptake in Tumor: nude mice with MDA-MB-231 tumors, mean ± SD, n = 3-5
Procedure: (§2) BN/GRP receptor-positive MDA-MB-231 and PC3 cell lines (American Type Culture Collection, Rockville, USA) were grown as monolayers at 37 °C in a humidified atmosphere containing RPMI-1640 culture media with 10% fetal bovine serum (FBS) in tissue culture flasks. Twenty-four hours prior to conducting the tumor implantation, the media was replaced with RPMI-1640/10% FBS. The cells were grown to 80-90% confluency and harvested by trypsinization. After centrifugation, about 50 million cells were suspended in 1 mL media for implantation into mice. To prepare cells for inoculation, MDA-MB-231 or PC3 cancer cells with media were centrifuged, the media decanted, and the cell pellet was mixed with phosphate-buffered saline (PBS) to reach a concentration of approximately 5 million cells per 100 μL PBS. Human MDA-MB-231 breast cancer xenografts female mouse models were used for in vivo tumor-targeting experiments. For the implantation of tumor xenografts, approximately five million MDA-MB-231 cells in suspension of 100 μL sterile PBS were injected subcutaneously into the left thigh of each mouse. Tumors were allowed to grow for 4-6 weeks by which tumors had reached weights of 200-300 mg. After sufficient growth of tumors, animals were injected with 20-30 μCi of the radiotracers and the animals were sacrificed at specified time points. The uptake of ^68Ga-radiolabeled peptides in the tumors and other major body organs was calculated by γ-counting as described above.

in vivo = assay type: in vivo, nude mice; details: female, nude, mouse, in vivo, total radioactivity
Procedure: as §2

[4] = ~300,000 cells, 0.1-25 nM radiopeptide, 60 min, room temperature, mean ± SD
[5] = Radioactivity in Urine + bladder
[6] = Uptake in Intestines (measured without their contents)

Bmax (apparent number of binding sites per cell) [2]: 5.27 × 10^5 sites/cell
Kd [2, 4]: 11.6 ± 3.05 nM
Bmax (apparent number of binding sites per cell) [3]: 6.22 × 10^5 sites/cell
Kd [3, 4]: 9.32 ± 1.5 nM
Compound: CCCC[C@H](NC(=O)[C@H](Cc1c[nH]cn1)NC(=O)[C@H](CC1CCCCC1)NC(=O)[C@@H](NC(=O)[C@H](C)NC(=O)[C@H](Cc1c[nH]c2ccccc12)NC(=O)[C@H](CCC(N)=O)NC(=O)[C@H](CS)NC(=O)CNC(=O)CNC(=O)CCCCCNC(=O)CN1CCN(CC(=O)O)CCN(CC(=O)O)CCN(CC(=O)O)CC1)C(C)C)C(=O)N[C@@H](CCSC)C(N)=O [^68Ga-DOTA-Ahx-BN Tris-, metal not drawn] ({DOTA-Ahx}-GGCQWAV[Cha]H[Nle]M-NH2)
Log P (octanol/water) [1]: − 1.18 ± 0.06
Radioactivity in Urine + bladder (MDA-MB-231 tumors; 1 h): 66.0 ± 6.60 % injected dose per tissue
Uptake in Blood (MDA-MB-231 tumors; 1 h): 0.70 ± 0.12 % ID/g
Uptake in Intestines (measured without their contents) (MDA-MB-231 tumors; 1 h): 0.89 ± 0.12 % ID/g
Uptake in Kidneys (MDA-MB-231 tumors; 1 h): 4.85 ± 0.43 % ID/g
Uptake in Liver (MDA-MB-231 tumors; 1 h): 2.20 ± 0.33 % ID/g
Uptake in Lungs (MDA-MB-231 tumors; 1 h): 1.86 ± 0.14 % ID/g
Uptake in Muscle (MDA-MB-231 tumors; 1 h): 0.28 ± 0.04 % ID/g
Uptake in Pancreas (MDA-MB-231 tumors; 1 h): 1.30 ± 0.18 % ID/g
Uptake in Spleen (MDA-MB-231 tumors; 1 h): 0.33 ± 0.02 % ID/g
Uptake in Stomach (MDA-MB-231 tumors; 1 h): 0.87 ± 0.11 % ID/g
Radioactivity in Urine + bladder (MDA-MB-231 tumors; 2 h): 68.0 ± 7.55 % injected dose per tissue
Uptake in Blood (MDA-MB-231 tumors; 2 h): 0.60 ± 0.09 % ID/g
Uptake in Intestines (measured without their contents) (MDA-MB-231 tumors; 2 h): 0.50 ± 0.10 % ID/g
Uptake in Kidneys (MDA-MB-231 tumors; 2 h): 3.74 ± 0.24 % ID/g
Uptake in Liver (MDA-MB-231 tumors; 2 h): 1.83 ± 0.24 % ID/g
Uptake in Lungs (MDA-MB-231 tumors; 2 h): 0.61 ± 0.07 % ID/g
Uptake in Muscle (MDA-MB-231 tumors; 2 h): 0.20 ± 0.02 % ID/g
Uptake in Pancreas (MDA-MB-231 tumors; 2 h): 0.75 ± 0.11 % ID/g
Uptake in Spleen (MDA-MB-231 tumors; 2 h): 0.16 ± 0.01 % ID/g
Uptake in Stomach (MDA-MB-231 tumors; 2 h): 0.60 ± 0.07 % ID/g
Uptake in Tumor (MDA-MB-231 tumors; 1 h p.i.): 2.09 ± 0.33 % ID/g
Uptake in Tumor (MDA-MB-231 tumors; 2 h p.i.): 1.62 ± 0.18 % ID/g

Compound: CCCC[C@H](NC(=O)[C@H](Cc1c[nH]cn1)NC(=O)[C@H](CC1CCCCC1)NC(=O)[C@@H](NC(=O)[C@H](C)NC(=O)[C@H](Cc1c[nH]c2ccccc12)NC(=O)[C@H](CCC(N)=O)NC(=O)[C@H](CS)NC(=O)CNC(=O)CNC(=O)c1ccc(NC(=O)CN2CCN(CC(=O)O)CCN(CC(=O)O)CCN(CC(=O)O)CC2)cc1)C(C)C)C(=O)N[C@@H](CCSC)C(N)=O [^68Ga-DOTA-Abz-BN Cyclen, metal not drawn] ({DOTA-4Abz}-GGCQWAV[Cha]H[Nle]M-NH2)
Bmax (apparent number of binding sites per cell) [2]: 6.09 × 10^5 sites/cell
Bmax (apparent number of binding sites per cell) [3]: 5.12 × 10^5 sites/cell
dose excreted at 1 h (in vivo; [5]): 61 ± 9.93%
dose excreted at 2 h (in vivo; [5]): 78 ± 5.89%
tissue uptake at 1 h (in vivo; Uptake in Blood): 1 ± 0.16 %ID/g
tissue uptake at 2 h (in vivo; Uptake in Blood): 0.55 ± 0.1 %ID/g
tissue uptake at 1 h (in vivo; [6]): 0.95 ± 0.27 %ID/g
tissue uptake at 2 h (in vivo; [6]): 0.54 ± 0.16 %ID/g
tissue uptake at 1 h (in vivo; Uptake in Kidneys): 6.03 ± 1 %ID/g
tissue uptake at 2 h (in vivo; Uptake in Kidneys): 5 ± 0.77 %ID/g
tissue uptake at 1 h (in vivo; Uptake in Liver): 2.54 ± 0.46 %ID/g
tissue uptake at 2 h (in vivo; Uptake in Liver): 2 ± 0.37 %ID/g
tissue uptake at 1 h (in vivo; Uptake in Lungs): 2.8 ± 0.55 %ID/g
tissue uptake at 2 h (in vivo; Uptake in Lungs): 1.15 ± 0.23 %ID/g
tissue uptake at 1 h (in vivo; Uptake in Muscle): 0.32 ± 0.06 %ID/g
tissue uptake at 2 h (in vivo; Uptake in Muscle): 0.26 ± 0.05 %ID/g
tissue uptake at 1 h (in vivo; Uptake in Pancreas): 2.94 ± 0.43 %ID/g
tissue uptake at 2 h (in vivo; Uptake in Pancreas): 1.18 ± 0.31 %ID/g
tissue uptake at 1 h (in vivo; Uptake in Spleen): 0.22 ± 0.07 %ID/g
tissue uptake at 2 h (in vivo; Uptake in Spleen): 0.12 ± 0.02 %ID/g
tissue uptake at 1 h (in vivo; Uptake in Stomach): 1.34 ± 0.29 %ID/g
tissue uptake at 2 h (in vivo; Uptake in Stomach): 0.49 ± 0.12 %ID/g
Uptake in Tumor (MDA-MB-231 tumors; 1 h p.i.): 1.84 ± 0.40 % ID/g
Uptake in Tumor (MDA-MB-231 tumors; 2 h p.i.): 1.30 ± 0.37 % ID/g
